Test results: the nanobody polyreactivity screen of Harvey et al. (2022)

Test: yeast display, Sf9 membrane polyspecificity reagent, FACS + sequencing; frameworks hold sequencing errors
How it was run: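 Galactose-induced (36–48 hours) yeast carrying a synthetic nanobody display library were exposed to 10% biotinylated, detergent-solubilized Sf9 membrane reagent at 4 °C for 1 hour. FACS followed streptavidin microbead enrichment, using low and high (top ~1%) gates for expression (anti-HA) and reagent binding (streptavidin). Colony PCR, MiSeq 2 × 250 sequencing and CDR-length filtering followed. Labels for polyreactivity reflect the gate of origin.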

Row | Sequence | polyreactivity (PSR sort gate)
1 | QVQLVESGGGFVQAGGSLRLSCAASGRIFRYYTMGWYRKAPGKERELVAAISWTGASTYYADSVKGRFTISLDNAKNTLYLQMNSLKPEDTAVYYCAADSYIAHHGFAMDYWGQGTQVTVSS | low polyreactivity
2 | QVQLVESGGGLVQAGGSLRLSCAASGNTFGKYAMGWSRQAPGKERELLATITRRGGSTYYADSVKGRFTISRDNAKNTVYLQMNSLNPEDTAVYYCAAVVRYRQGVTRSIMDYWGQGTQVTVSS | high polyreactivity
3 | QVQLVESGGGLVQAGGSLRLSCAASGFIFYSYGMGWYRQAPGKERELVASITSSGTRTYYADSVKGRFTISRDNAKHTVYLQMNSLKPEDTAVYYCAASRFYYGIAYYRYDYWGQGTHVTVSS | high polyreactivity
4 | QVQLVESGGGLVQAGGSLRLSCAASGFTFYGYAMGWYRQAPGKERELVAGITSGGRTYYADSVKGRFTISRDNAKNTVYLQMNSLKPEDTAVYYCAARRITWGRFDYWGQGTQVTVSS | high polyreactivity
5 | QDQLVESGGGLVQAGGSLRLSCAASGRTFHKYAMGWSRQAPGKEMELVAAITGSGVRTYYADSVKGRFTISRDNAKNTVYLQMNSLKPEDTAVYYGNADSYNRNGDYWGQGTQVTVSS | high polyreactivity
6 | QVHLVESGGGLVQAGGSLRLSCAASGRTLYDYAMEWYRQAPAKERELVAGITSGDSTYYADSVKGRFTISRDNAKNTVYLQMNSLKPEDTAVYYCAADSDTFYYTGYDYDYWGQGTQVTVSS | low polyreactivity
7 | QVQLVESGGGLVQAGGSLRLSCAASGLILRGYAMGWYRQAPGKERELVAAISGSGGRTYYADSVKGRFTISRDNAKNTVYLQMNSLKPEDTAVYYCNKGGIREYDYWGQGTQVTVSS | high polyreactivity
8 | QVQLVESGGGLVQAGGSLRLSCAASGSTFTRNAMGWYRQAPGKERELVAAISSRGTSTYYADSVKGRFTISRDNAKNTVYLQMNSLKPEDTAVYYCAAVGVKQYLGGNPFDYWGQGTQVTVSS | high polyreactivity
9 | QVHLVESGGGLVQAGGSLRLSCAASGSIFSGNAMGWYRQAPGKERELVAAITSSGGNTYYADSVKGRFTISRDNAKNTVYLQMNSLKPADTAVYYCAADGVYWRWYLYTFWMDYWGQGTQVTVSS | low polyreactivity
10 | QVQLVESGGGLVQAGGSLRLSCAASGSTFPEYAMGWYRQAPGKERELVAAISKRGGRTYYADSVKGRFTISRDNAKNTVYLQMNSLKPEETAVYYCARDSYPHGRARFDYWGQGTQVTVSS | high polyreactivity
11 | QVQLVESGGGLVQAGGSLRLSCAASGRTFWFYSMAWYRQAPGKERELVATINYRGGTTYYADSVKGRFTISRDNAKNTVYLQMNSLKPEDTAVYYCAVRPTRTFIYDYWGQGTQVTVSS | high polyreactivity
12 | QVQLVESGGGLVQAGGSLRLSCAASGFTFRFYAMGWYRQAPAKERELVAAISRGGSTYYADSVKGRFTISRDNAKYTVYLQMNSLKPEDTAVFYCAKRGRYGDYWGQGTLVTVSS | high polyreactivity
13 | QVQLVESGGGLVQAGGSLRLSCAASGSIFYPYAMGWYRQAPGKERELVAGISRSGASTYYADSVKGRFTISRDNAKNTVYLQMNSLKPEDTAVYYCAADDWTRNYWGQGTEVTVSS | low polyreactivity
14 | QVQLVESGGGLVQAGGSLRLSCAASGRIFTFYARGLDRQAPGKEREMVAAISSGGSTYYADSVKGRFTISRDNAKNTVYLQMNSLKPEDTAVYYCATQGARYYHTYGYWGQGTLVTVSS | low polyreactivity
15 | QVQLVESGGGLVQAGGSLRLSCAASGSTLYRYAMGWYRQAPGKERELVAAISSSGGSTYYADSVKGRFTISRDNAKNTVYLQMNSLKPEDTAVYYCAATSSFYFILYDYWGQGTQVTVSS | high polyreactivity
16 | QVQLVESGGGLVQAGGSLRLSCAASGRTLYKYAMGLYRQAPGKERELFATISSGGRTNYADSVKGRFTISRDNSKNTVYLQMNSLKPEDTAVYYCAAQNRPRYYSGDYWGQGSQVTVSS | low polyreactivity

Row | Sequence | polyreactivity (PSR sort gate)
17 | QVQLVESGGGLVQAGGSLRLSCAASGRIFYYNSMGWYREAPGKERELVAAIRSGGGSTYYADSVKGRFTISRDNAKNTVYLQMNSLKPEDTAVYYCAAEPSQRYPWSGYDYWGQGTQVTVSS | low polyreactivity
18 | QVQLQESAVLVQAGGSLRLSCPASGSISGRNVMGRYRQAQAKQREFVASITDGSSTNYADSVKGRFTISRDNAKNTVYLQMNSLNPKDTAVYYCAAYAQRAKSFGYWGRGTQVTVSS | low polyreactivity
19 | QVQLVESGGGLVQAGGSLRLSCAASGSTFLYYAMGWYRQAPGKERQLVAAISGSGGSTYYADSVKGRFTISRDNAKNNVYLQMYSLKPEDTAVYYCNAVARRHGLGPYDYWGQGTQVTVSS | high polyreactivity
20 | QVQLVESGGGLVQAGGSLRLSCAASGSTFAGYAMGWYRQPPGKERELVAAISYSGGTTYYADSVKGRFTISRDNAKNTVYLQMNSLKPEDTAVYYCAARKKFKTPSYDMYYWGQGTQVTVSS | high polyreactivity
21 | QVQLVESGGGLVQAGGSLRLSCAASGSTLIWNVMGWYRQAPGKERELVATISSGGRTYYADSVKGRFTISRDNAKNTVYLQMNSLKPEDTAVYYCAARSRRGVSYRSYRSFDYWGQGTQVTVSS | high polyreactivity
22 | QVQHVQSGGGLVQAGGSLRLSCAASGRTNPFYAMGWYRQAPGKERELVAAISSSAGRTYYADSVKGRFTISRDNAKNTFYFEMNSLKPEDTAVYYCAARLYGRYRYDYWGQGTQVTVSS | low polyreactivity
23 | QVQLVESGRGLVQAGGSLRLSCAASGSTLGVNAMGWYRQAPGKERELVAAISRSGTSTYYADSVKGRFTISRDNAKNTVYLQMNSLKPEDTAVYYCAAQYVIFGSRSRQFIEYEYWGQGTQVTVSS | high polyreactivity
24 | QVQLVESGGGLVQAGGSLRLSCAASGSIVRYYAMGWYRQAHGKEREFVAAISWSGGSTYYADSVKGRFTISRDNAKKTVYLQRNSLKPEDTAVFFCATTPGVWSTGGTNGFGYWGQGTQVTVSS | high polyreactivity
25 | QVQLVESGGGLVQAGGSLRLSCAASGSTFLWNAMGWYRQAPGKERELVAAISYSGGSTYYADSVKGRFTISRDNAKNTVYLQMNSLKPEDTAVYYCAKEWFYDPYPPGYDYWGQGTQVTVSS | low polyreactivity
26 | QVQLVESGGGLVQAGGSLRLSCAASGSTFWYYAMGWYRQAPGKERELVAAITTGGDTTNYADSVKGRFTISRDNAKNNVYLQMNSLKPADTAVYYCARDTGYDLIVLPDDSWGQGTQVTVSS | low polyreactivity
27 | QVQVVESGGGLVQAGGSLRLSCAPSGRTFYGNVMGWYRQAPGKERELVAAISSRGSSTRYADSVKGRFTISRDNAKNTVYLQMNRLKPEDTAVYYCAARNEYWGQGTQVTVSS | high polyreactivity
28 | QVHLQESGGGLVQAGGSLRLSCAASGTIFRFRNMGWHRQAPGKERELVAGINGGTTTYYADSVIGRFTISRDNAKNTVYLQMNSLKPDDTAVYNCAAGASRLTYYDYWGQGTQVTVSS | low polyreactivity
29 | QGQLEESGGGLVQAGGSLRLTCAASGRNLRTYAMGWYRQATGKERELVAAISRGGSTNYADSVKGRFTISRDNAKNTVYLQMHSLKPEDTAVYYCAAGYVRYYSDYVSYVYWGQGTQVTVSS | low polyreactivity
30 | QVQLEESGGGLVQAGGSLRLSCAASGIFTRYAMGWYRQAPGKERELVAAISRGGGSTYYADTVKGRFTISRDNAKNTVYLLMNSLKPEDTAVYYCYTYKRPRSPGPKFYYWGQGTQVTVSS | high polyreactivity
31 | QVQLVESGGGLVQAGGSLRLSCAAYGRTFFWNAMGLYRKAPGTETELVAAITWSGGSTYYADSVKGRFTISRDNAKITVYLQMNSLKPEDTAVYYCASVVSDYVWRYEYWGQGTQVTVSS | low polyreactivity
32 | QVQLVESGGGLVQAGGSLRLSCAASGITFPINTMGWYRQAPGKERELVAGIDWTGGSTYYADSVKGRFTISRDNAKIPVYLLMNSLKPEHTAVYYCAKTRRRLLTRYDYWGQGTQVTVSS | low polyreactivity
